In US10925971B2, “Methods of treating PRLR positive breast cancer” (Regeneron Pharmaceuticals, Inc., priority 2016, dated 2021):

B1: H1H6793P-DM1 (conjugate)
VH: EVQLVESGGGLVQPGGSLRLSCAASGFSFSIYAMSWFRQAPGKGLEWVSAINGRGDGTHYADSVKGRFTISRDNSKTTLYLQMSSLRAEDTAVYYCAKPVMSTNGFDIWGQGTMVTVSS
VL: DIQMTQSPSTLSASVGDRVTITCRASQSISSWLAWYQLKPGKAPKLLIYKASNLESGVPSRFSGSGSGTEFTLTISSLQPDDFATYYCQQYNIYWTFGQGTKVEIK
B2: H1H6959N2-DM1 (conjugate)
VH: EVQLVESGGGLVQPGRSLRLSCAASGFTFDDYAMHWVRQAPGKGLEWVSGISWHSGIIGYADSVKGRFTISRDNAKNSLYLQMNSLRTEDAALYYCAKIGSYFYFDSWGQGTLVTVSS
VL: EIVLTQSPGTLSLSPGERATLSCRASQSVSSNYLAWYQQKPGQAPRLLIYGASSRATGIPDRFSGSGSGTDFTLTISRLEPEDFAVYYCQQFGSSGYTFGQGTNLEIK
B3: H1H6803P-DM1 (conjugate)
VH: EVQLVESGGGVVRPGGSLRLSCAASGFKFDDYGMTWVRHVPGKGLEWVSGINWNGGRTGYTDSVKGRFTISRDNAKNSLYLQMNSLRAEDTALYHCAGARRDAFDIWGQGTMVTVSS
VL: DIQMTQSPSSLSASIGDRVTITCRASQNIIKYLNWYQQNAGKAPKLLIYTASSLQSGVPSRFSGSGSGTDFTLTISSLQPEDFATYYCQQSSSSPYTFGQGTKLEIK

Key:
HEK293 (293) cells = experiment: In vitro cell viability (cell kill) assay, CCK8; format: cell-based, human; conditions: 293; Table 11; 3 days
Excerpt: (§1) PRLR-overexpressing cells, including HEK293, PC3, MCF7 and NCI-N87, were generated to assess the ability of anti-PRLR conjugated antibodies to reduce cell viability. For comparative purposes, PC3 and T47D cells with overexpressed ErbB2 were also generated, as well as an MCF7 cell line over-expressing both hPRLR and hErbB2. Briefly, Lipofectamine® 2000-mediated transfection methodology was utilized to generate HEK293 cells expressing human PRLR (HEK293/hPRLR) or human ErbB2 (HEK293/hErbB2). Lipofectamine LTX with Plus Reagent was used to generate PC3 cells expressing human PRLR (PC3/hPRLR) or human ErbB2 (PC3/hErbB2). Lentiviral-mediated transduction was utilized to generate MCF7 cells expressing human PRLR (MCF7/hPRLR), NCI-N87 cells expressing human PRLR (NCI-N87/hPRLR), T47D cells over-expressing human ErbB2 (T47D/hErbB2), and MCF7 cells expressing both human PRLR and human ErbB2 (MCF7/hPRLR/hErbB2). All lines were selected for at least two weeks in complete growth media plus appropriate selection reagents. Stably expressing populations were enriched for PRLR expression via FACS using the anti PRLR antibody Control I.
(§2) Next, the ability of anti-PRLR-DM1 antibody-drug conjugates (i.e., anti-PRLR antibodies conjugated to DM1 via a non-cleavable linker [SMCC]) to reduce cell viability was determined using in vitro cell based assays. Cells were seeded in PDL-coated 96 well plates at 1500 to 10000 cells per well in complete growth media and allowed to grow overnight. For cell viability curves, ADCs or free DM1 (as the methyl disulfide derivative DM1-SMe) were added to the cells at final concentrations ranging from 500 nM to 5 pM and incubated for 3 days. The 293, PC3 and T47D cells were incubated with CCK8 (Dojindo, Rockville, Md.) for the final 1-3 hours and the absorbance at 450 nm (OD450) was determined on a Flexstation3 (Molecular Devices, Sunnyvale, Calif.). MCF7 cells were treated with Hoechst 33342 nuclear stain while being fixed with 4% formaldehyde. Images were acquired on the ImageXpress micro XL (Molecular Devices, Sunnyvale, Calif.) and nuclear counts were determined via Columbus image analysis software (Perkin Elmer, Shelton, Conn.). Background OD450 values (PC3, 293, and T47D) or nuclear counts (MCF7) from digitonin (40 nM) treated cells was subtracted from all wells and viability was expressed as a percentage of the untreated controls. IC50 values were determined from a four-parameter logistic equation over a 10-point response curve (GraphPad Prism).

PC3 cells = experiment: In vitro cell viability (cell kill) assay, CCK8; format: cell-based, human; conditions: Table 11, 3 days
Excerpt: as §1, §2

| Molecule | % Kill (HEK293 (293) cells) [%] | IC50 (HEK293 (293) cells) [µM] | % Kill (PC3 cells) [%] | IC50 (PC3 cells) [µM] |
| --- | --- | --- | --- | --- |
| B1 | 84 | 0.1 | 72 | 0.2 |
| B2 |  | 0.075 | 79 | 0.15 |
| B3 | 7 |  | 72 |  |
